Measurements taken from US20230135471A1, “UBIQUITIN VARIANTS WITH IMPROVED AFFINITY FOR 53BP1” (Integrated DNA Technologies, Inc., priority 2021, published 2023).

Biological target: 53BP1 fragment (a.a. 1221-1718) fused to an adenylate cyclase fragment (two-hybrid) (UniProt Q12888)
Test: cell-based or functional assay

Substance	Experiment 1 Average Enrichment	Experiment 1 Rep 1 Enrichment	Experiment 1 Rep 2 Enrichment	Experiment 2 Average Enrichment	Experiment 2 Rep 1 Enrichment	Experiment 2 Rep 2 Enrichment	Percent GFP Positive Rep 1	Percent GFP Positive Rep 2	Percent GFP Positive Rep 3
i53 + Q41C two-hybrid fusion (designed binder)	0.18 log2	0.22 log2	0.13 log2	-0.03 log2	-0.05 log2	0 log2	–	–	–
i53 + K29M two-hybrid fusion (designed binder)	1.6 log2	1.72 log2	1.48 log2	0.9 log2	1.23 log2	0.57 log2	23.9%	16.5%	17.8%
i53 + A28E two-hybrid fusion (designed binder)	0.31 log2	0.23 log2	0.4 log2	0.42 log2	0.53 log2	0.32 log2	–	–	–
i53 + P69R two-hybrid fusion (designed binder)	-1.93 log2	-2.27 log2	-1.59 log2	0.75 log2	0.2 log2	1.29 log2	–	–	–
i53 + N25D two-hybrid fusion (designed binder)	0.33 log2	0.11 log2	0.54 log2	0.45 log2	0.49 log2	0.41 log2	–	–	–
i53 + A46G two-hybrid fusion (designed binder)	0.6 log2	0.48 log2	0.72 log2	-0.17 log2	1.37 log2	-1.71 log2	–	–	–
i53 + R54T two-hybrid fusion (designed binder)	0.66 log2	0.62 log2	0.71 log2	0.7 log2	0.76 log2	0.64 log2	–	–	–
i53 + P38T two-hybrid fusion (designed binder)	0.11 log2	0.95 log2	-0.72 log2	0.92 log2	1.27 log2	0.58 log2	–	–	–
i53 + K48Q two-hybrid fusion (designed binder)	0.55 log2	0.59 log2	0.51 log2	0.34 log2	0.2 log2	0.47 log2	–	–	–
i53 + P38Y two-hybrid fusion (designed binder)	0.74 log2	1.79 log2	-0.3 log2	0.31 log2	0.66 log2	-0.03 log2	–	–	–
i53 + E18R two-hybrid fusion (designed binder)	-0.75 log2	-1.22 log2	-0.28 log2	0.06 log2	-0.24 log2	0.36 log2	–	–	–
i53 + R74V two-hybrid fusion (designed binder)	1.51 log2	1.58 log2	1.44 log2	0.95 log2	1.19 log2	0.7 log2	–	–	–
i53 + K33Y two-hybrid fusion (designed binder)	1.02 log2	0.63 log2	1.41 log2	0.98 log2	1.03 log2	0.94 log2	–	–	–
i53 + E18T two-hybrid fusion (designed binder)	-0.27 log2	-0.33 log2	-0.21 log2	0.28 log2	0.23 log2	0.34 log2	–	–	–
i53 + I13H two-hybrid fusion (designed binder)	0.5 log2	-0.27 log2	1.28 log2	-1.6 log2	-2.48 log2	-0.71 log2	–	–	–
i53 + K33Q two-hybrid fusion (designed binder)	2.9 log2	3.03 log2	2.77 log2	1.48 log2	1.96 log2	0.99 log2	–	–	–
i53 + Q31M two-hybrid fusion (designed binder)	-1.74 log2	-0.84 log2	-2.63 log2	0.07 log2	-0.05 log2	0.18 log2	–	–	–
i53 + T14H two-hybrid fusion (designed binder)	2.56 log2	2.63 log2	2.5 log2	1.65 log2	1.47 log2	1.84 log2	–	–	–

Substance	Experiment 1 Average Enrichment	Experiment 1 Rep 1 Enrichment	Experiment 1 Rep 2 Enrichment	Experiment 2 Average Enrichment	Experiment 2 Rep 1 Enrichment	Experiment 2 Rep 2 Enrichment	Percent GFP Positive Rep 1	Percent GFP Positive Rep 2	Percent GFP Positive Rep 3
i53 + P38S two-hybrid fusion (designed binder)	0.22 log2	0.19 log2	0.25 log2	0.27 log2	0.56 log2	-0.02 log2	–	–	–
i53 + N25T two-hybrid fusion (designed binder)	0.12 log2	-0.19 log2	0.44 log2	0.29 log2	0.33 log2	0.24 log2	–	–	–
i53 + L67Y two-hybrid fusion (designed binder)	0.14 log2	-0.58 log2	0.86 log2	0.58 log2	0.5 log2	0.65 log2	–	–	–
i53 + K48N two-hybrid fusion (designed binder)	-0.04 log2	-0.15 log2	0.08 log2	0.06 log2	0.09 log2	0.03 log2	–	–	–
i53 + Q41Y two-hybrid fusion (designed binder)	0.68 log2	0.73 log2	0.64 log2	0.47 log2	0.4 log2	0.53 log2	–	–	–
i53 + S49A two-hybrid fusion (designed binder)	0.5 log2	0.62 log2	0.39 log2	0.41 log2	0.76 log2	0.06 log2	–	–	–
i53 + T12Y two-hybrid fusion (designed binder)	0.25 log2	0.14 log2	0.36 log2	0.35 log2	0.52 log2	0.17 log2	–	–	–
i53 + E16D two-hybrid fusion (designed binder)	-0.2 log2	-0.69 log2	0.3 log2	0.13 log2	0.42 log2	-0.15 log2	–	–	–
i53 + S65E two-hybrid fusion (designed binder)	1.54 log2	1.29 log2	1.79 log2	0.8 log2	0.74 log2	0.85 log2	–	–	–
i53 + T9I two-hybrid fusion (designed binder)	0.46 log2	0.3 log2	0.61 log2	0.25 log2	-0.01 log2	0.52 log2	–	–	–
i53 + S57M two-hybrid fusion (designed binder)	0.01 log2	-0.11 log2	0.12 log2	-0.04 log2	-0.17 log2	0.09 log2	–	–	–
i53 + S49C two-hybrid fusion (designed binder)	0.6 log2	0.95 log2	0.24 log2	-0.18 log2	-0.04 log2	-0.31 log2	–	–	–
i53 + M1I two-hybrid fusion (designed binder)	0.06 log2	0.11 log2	0.01 log2	0 log2	-0.18 log2	0.19 log2	–	–	–
i53 + L67C two-hybrid fusion (designed binder)	0.04 log2	-0.31 log2	0.39 log2	0.73 log2	0.96 log2	0.5 log2	–	–	–
i53 + E16T two-hybrid fusion (designed binder)	0.88 log2	1.12 log2	0.64 log2	0.3 log2	0.27 log2	0.33 log2	–	–	–
i53 + D58S two-hybrid fusion (designed binder)	0.33 log2	0.29 log2	0.38 log2	0.21 log2	0.24 log2	0.17 log2	–	–	–
i53 + D32R two-hybrid fusion (designed binder)	0.03 log2	0.61 log2	-0.54 log2	-0.46 log2	-0.53 log2	-0.39 log2	–	–	–
i53 + K33R two-hybrid fusion (designed binder)	0.42 log2	0.73 log2	0.1 log2	0.37 log2	0.64 log2	0.1 log2	–	–	–
